Laboratory results as given in patent WO2012119989A2 (dated 2012).
Residue numbers refer to the chain shown, from its start.

T1: Cell adhesion molecule-1 (CADM1), human, on the cell surface (human) (UniProt Q9BY67)
T1 sequence (looked up): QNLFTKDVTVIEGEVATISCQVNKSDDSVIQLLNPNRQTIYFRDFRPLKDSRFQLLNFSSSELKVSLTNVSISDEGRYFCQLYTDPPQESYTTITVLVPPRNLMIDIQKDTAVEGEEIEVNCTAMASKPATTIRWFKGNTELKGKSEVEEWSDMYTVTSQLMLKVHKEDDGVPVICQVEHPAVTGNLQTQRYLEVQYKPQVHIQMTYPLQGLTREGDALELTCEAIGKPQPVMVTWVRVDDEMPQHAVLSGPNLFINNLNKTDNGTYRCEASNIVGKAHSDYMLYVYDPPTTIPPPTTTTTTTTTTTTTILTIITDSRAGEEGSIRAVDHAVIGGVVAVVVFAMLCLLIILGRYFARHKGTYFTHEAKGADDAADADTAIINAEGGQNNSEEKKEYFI

T2: CADM1 extracellular domain expressed by the CHO-Flpln CADM1 cell line (human) (UniProt Q9BY67)
T2 sequence: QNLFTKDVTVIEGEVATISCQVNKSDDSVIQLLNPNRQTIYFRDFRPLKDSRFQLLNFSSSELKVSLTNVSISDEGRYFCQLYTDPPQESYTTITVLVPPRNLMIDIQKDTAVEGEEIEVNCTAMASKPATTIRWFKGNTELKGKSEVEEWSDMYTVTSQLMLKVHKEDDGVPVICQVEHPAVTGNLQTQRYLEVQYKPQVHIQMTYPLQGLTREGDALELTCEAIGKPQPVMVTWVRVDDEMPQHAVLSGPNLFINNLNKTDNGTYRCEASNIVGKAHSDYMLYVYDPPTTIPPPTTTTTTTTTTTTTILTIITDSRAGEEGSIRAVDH

T3: Cell adhesion molecule-1 (CADM1), human, on the cell surface (human, UniProt Q9BY67 45-442)
T3 construct: whole, on cells; also called TSLC1; IGSF4
T3 sequence (looked up): T1 sequence (looked up)

T4: CADM2, human, on transfected CHO cells (human, UniProt Q8N3J6 25-435)
T4 construct: whole, on cells
T4 sequence (looked up): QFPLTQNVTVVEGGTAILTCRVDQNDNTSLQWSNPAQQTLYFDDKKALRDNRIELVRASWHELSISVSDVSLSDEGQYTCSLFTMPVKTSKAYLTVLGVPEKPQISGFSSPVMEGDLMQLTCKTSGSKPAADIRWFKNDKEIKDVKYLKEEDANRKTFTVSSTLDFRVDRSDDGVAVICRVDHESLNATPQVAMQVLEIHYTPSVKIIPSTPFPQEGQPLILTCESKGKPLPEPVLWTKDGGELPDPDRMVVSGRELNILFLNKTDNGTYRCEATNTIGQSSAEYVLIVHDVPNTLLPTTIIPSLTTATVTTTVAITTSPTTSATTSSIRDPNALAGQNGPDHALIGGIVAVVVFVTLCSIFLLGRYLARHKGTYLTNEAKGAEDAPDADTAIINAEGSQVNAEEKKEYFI

T5: CADM3, human, on transfected CHO cells (human, UniProt Q8N126 25-398)
T5 construct: whole, on cells; also called CADSV13 (OCR)
T5 sequence (looked up): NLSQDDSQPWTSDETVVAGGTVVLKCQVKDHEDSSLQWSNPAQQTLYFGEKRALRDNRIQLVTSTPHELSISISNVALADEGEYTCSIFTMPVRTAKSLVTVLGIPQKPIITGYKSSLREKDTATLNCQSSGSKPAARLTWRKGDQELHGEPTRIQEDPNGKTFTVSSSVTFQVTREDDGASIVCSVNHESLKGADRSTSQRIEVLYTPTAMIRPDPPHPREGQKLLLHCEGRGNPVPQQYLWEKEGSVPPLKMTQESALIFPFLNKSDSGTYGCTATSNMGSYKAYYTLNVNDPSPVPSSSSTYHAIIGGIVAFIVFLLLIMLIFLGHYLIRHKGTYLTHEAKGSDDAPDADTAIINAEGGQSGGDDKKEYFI

T6: CADM4, human, on transfected CHO cells (human, UniProt Q8NFZ8 21-388)
T6 construct: whole, on cells; also called CAD 4
T6 sequence (looked up): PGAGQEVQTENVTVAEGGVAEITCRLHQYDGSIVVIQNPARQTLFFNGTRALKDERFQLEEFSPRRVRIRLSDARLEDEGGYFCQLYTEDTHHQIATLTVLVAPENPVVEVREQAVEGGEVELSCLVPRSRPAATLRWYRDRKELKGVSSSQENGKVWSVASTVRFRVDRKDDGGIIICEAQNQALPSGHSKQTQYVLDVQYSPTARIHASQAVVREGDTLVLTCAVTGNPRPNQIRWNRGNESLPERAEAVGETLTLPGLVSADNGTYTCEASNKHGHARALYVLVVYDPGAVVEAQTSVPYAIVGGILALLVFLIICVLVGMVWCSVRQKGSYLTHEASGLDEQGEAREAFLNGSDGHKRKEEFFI

B1: Antibody-2 (antibody, V domains shown)
VH: EVQLLESGGGLVQPGGSLRLSCAASGFTFSKYEMVWVRQAPGKGLEWVSYIVPSGGATLYADSVKGRFTISRDNSKNTLYLQMNSLRAEDTAVYYCARVKAGVFDYWGQGTL
VL: QYELTQPPSVSVSPGQTARITCSGDRLGETYVSWYQQKPGQSPVLVIFEDNKRPSGIPERFSGSNSGNTATLTVSGTRAMDEADYYCQAWVGSTPFVFGTGTKVTVL
B2: AB2 NF (antibody, V domains shown)
VH: B1 VH
VL: B1 VL
B3: Antibody-1 (antibody, V domains shown)
VH: EVQLLESGGGLVQPGGSLRLSCAASGFTFSFYPMQWVRQAPGKGLEWVSSIGSSGGYTKYADSVKGRFTISRDNSKNTLYLQMNSLRAEDTAVYYCTRDRWYFDLWGRGTL
VL: QSELTQDPAVSVALGHTVKITCQGDTFRTYYASWYQQKPGQAPLLVVYGENKRPSGIPDRFSGSTSGNTASLTITGAQAEDEADYYCHSRDNSGHLHVFGGGTKVTVL
B4: anti-CADM1 AB-10, mouse IgG2a isotype (antibody, V domains shown)
VH: B3 VH with F31M, P33T, Q35S, G52W, Y57K, K59S, T97A, R98K, D99E, R100S
VL: QYELTQDPAVSVALGQTVRITCQGHSLRSYYATWYQQKPGQAPVLVMYGENNRPSGIPDRFSGSSSGNTASLTITGAQAEDEADYYCNSRDNSGNHLVFGGGTNLTVL
notes: also called AB-10 mouse lgG2a
B5: Antibody-10 (antibody, V domains shown)
VH: B3 VH with F31M, P33T, Q35S, G52W, Y57K, K59S, T97A, R98K, D99E, R100S
VL: B4 VL
notes: also called AB10; AB 1 0
B6: Antibody-3 (antibody, V domains shown)
VH: B3 VH with F31R, Q35Y, G52S, Y57L, K59H, T97A, D99G, R100D
VL: QYELTQDPAVSVALGQTVRITCQGDSLRTYYASWYQQRPGQAPVLVIYGDNDRPSGIPDRFSGSTSRNTASLTITGAQAEDEAHYYCNSRDSSGNHIFATGTKVTVL
notes: also called AB3; AB 3

Legend:
[1] = target: T1, Cell adhesion molecule-1 (CADM1), human, on the cell surface (human); assay: cell-based or functional assay
[2] = target: T1, Cell adhesion molecule-1 (CADM1), human, on the cell surface (human); assay: flow cytometry, DU145 cells
[3] = target: T1, Cell adhesion molecule-1 (CADM1), human, on the cell surface (human); assay: flow cytometry, LnCaP cells
[4] = target: T2, CADM1 extracellular domain expressed by the CHO-Flpln CADM1 cell line (human); assay: flow cytometry, CHO-Flpln CADM1 cells
[5] = target: T1, Cell adhesion molecule-1 (CADM1), human, on the cell surface (human); assay: flow cytometry, LnCaP cells (second table of Example 15)
[6] = target: T1, Cell adhesion molecule-1 (CADM1), human, on the cell surface (human); assay: flow cytometry, SKMEL28 melanoma cells, antibody 10ug/ml
[7] = target: T1, Cell adhesion molecule-1 (CADM1), human, on the cell surface (human); assay: flow cytometry, Lovo colon cancer cells, antibody 10ug/ml
[8] = target: T1, Cell adhesion molecule-1 (CADM1), human, on the cell surface (human); assay: flow cytometry, SW480 colon cancer cells, antibody 10ug/ml
[9] = target: T1, Cell adhesion molecule-1 (CADM1), human, on the cell surface (human); assay: flow cytometry, Caco-2 colon cancer cells, antibody 10ug/ml
[10] = target: T1, Cell adhesion molecule-1 (CADM1), human, on the cell surface (human); assay: flow cytometry, MDA-MB-435S melanoma cells, antibody 10ug/ml
[11] = target: T1, Cell adhesion molecule-1 (CADM1), human, on the cell surface (human); assay: flow cytometry, LnCaP prostate cancer cells, antibody 10ug/ml
[12] = target: T1, Cell adhesion molecule-1 (CADM1), human, on the cell surface (human); assay: flow cytometry, DU145 prostate cancer cells, antibody 10ug/ml
[13] = target: T2, CADM1 extracellular domain expressed by the CHO-Flpln CADM1 cell line (human); assay: flow cytometry, CHO-Flpln CADM1 cells (second table of Example 15)
[14] = target: T3, Cell adhesion molecule-1 (CADM1), …; assay: flow cytometry titration, A375 melanoma cells, mouse IgG2a isotype
[15] = target: T4, CADM2, human, on transfected CHO cells; assay: flow cytometry, CHO cells transiently transfected with CADM2
[16] = target: T5, CADM3, human, on transfected CHO cells; assay: flow cytometry, CHO cells transiently transfected with CADM3
[17] = target: T6, CADM4, human, on transfected CHO cells; assay: flow cytometry, CHO cells transiently transfected with CADM4
[18] = target: T3, Cell adhesion molecule-1 (CADM1), …; assay: flow cytometry titration, A375 melanoma cells, human IgG1 isotype
[19] = target: T3, Cell adhesion molecule-1 (CADM1), …; assay: flow cytometry titration, SKOV3 ovary cancer cells

Binder | percent of cells bound [2] [%] | percent of cells bound [3] [%] | percent of cells bound [4] [%] | percent of cells bound [5] [%] | % of fluorescence cells [12] [%] | percent of cells bound [13] [%] | binding result [15] | binding result [16] | binding result [17] | also measured
B1 | 99.5 | 99.5 | 99.9 | 98.6 | 99.5 | 98.3 | – | – | – | % cell viability at 100 nM, Hum-ZAP assay, A375 melanoma cells [1]: 26.2%; % cell viability at 100 nM, Hum-ZAP assay, Caco-2 colon cancer cells [1]: 55.9%; % cell viability at 100 nM, Hum-ZAP assay, Lovo colon cancer cells [1]: 34.3%; % cell viability at 100 nM, Hum-ZAP assay, MDA-MB-435S melanoma cells [1]: 27.3%; % cell viability at 100 nM, Hum-ZAP assay, SKMEL28 melanoma cells [1]: 36.7%; % cell viability at 100 nM, Hum-ZAP assay, SW480 colon cancer cells [1]: 20.6%; % of viability, Hum-ZAP internalization assay, positive CADM1 cell line, antibody 10-6 M [1]: 85.1%; % of viability, Hum-ZAP internalization assay, positive CADM1 cell line, antibody 10-7 M [1]: 29.3%; % of viability, Hum-ZAP internalization assay, positive CADM1 cell line, antibody 10-8 M [1]: 14%; % of fluorescence cells [6]: 100%; % of fluorescence cells [7]: 99.2%; % of fluorescence cells [8]: 100%; % of fluorescence cells [9]: 99.6%; % of fluorescence cells [10]: 100%; % of fluorescence cells [11]: 98.6%
B2 | – | – | – | 96.8 | – | 98.5 | – | – | – | –
B3 | 99 | 99.6 | 99.8 | – | 99 | – | – | – | – | % cell viability at 100 nM, Hum-ZAP assay, DU145 prostate cancer cells [1]: 60.6%
B4 | – | – | – | – | – | – | – | – | – | EC50 [14]: 0.76 nM
B5 | – | – | 99.8 | – | – | 98.7 | no binding (tested: 10ug/ml (protocol of Example 19)) | no binding (tested: 10ug/ml (protocol of Example 19)) | no binding (tested: 10ug/ml (protocol of Example 19)) | EC50 [18]: 1.26 nM
B6 | – | – | 99.7 | – | – | – | no binding (tested: 10ug/ml (protocol of Example 19)) | no binding (tested: 10ug/ml (protocol of Example 19)) | no binding (tested: 10ug/ml (protocol of Example 19)) | EC50 [19]: 1 nM
